The results in this text go back to article PMC9723621.

Data set [1] addresses ArdK from plasmid R388 containing a C-terminal His tag (ArdKHT) (plasmid R388). Description: SEC; S75 gel filtration of the purified protein in solution. (In gel filtration, larger molecules generally elute earlier.)
In a further data set the target is T1, ArdK (SeMet, ArdKHT) (plasmid R388 (expressed in E. coli …, UniProt Q6I6B7 1-107)).
T1 sequence: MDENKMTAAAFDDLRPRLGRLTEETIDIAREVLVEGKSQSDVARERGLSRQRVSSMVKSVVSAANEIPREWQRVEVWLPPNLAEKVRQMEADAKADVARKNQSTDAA
Description: X-ray crystallography (2.8 A); crystal structures only; protein in 20 mM Tris pH 7.5, 150 mM NaCl, 1 mM DTT, 1 mM EDTA (gel filtration buffer); complex and crystallization conditions not in the material. The settings on record: protein: recombinant; tags: C-terminal His; chain copies: 2; blunt.

The next data set concerns the target T2, ArdK (ArdKHT) (plasmid R388 (expressed in E. coli …, UniProt Q6I6B7 1-107)).
T2 sequence: T1 sequence
Description: X-ray crystallography (2.6 A); crystal structures only; protein in 20 mM Tris pH 7.5, 150 mM NaCl, 1 mM DTT, 1 mM EDTA (gel filtration buffer); complex and crystallization conditions not in the material. To be noted: protein: recombinant; tags: C-terminal His; chain copies: 2; blunt.

For orientation: stoichiometry N means the number of molecules, sites or subunits per partner or assembly. In turn, “ArdK from plasmid R388 containing a C-terminal His tag (ArdKHT) (natural protein)” had a stoichiometry N in data set [1] of 2.

B1: DR operator, Pssb (DR_1/DR_2) (dsDNA)
DNA 1: GTATTGACACCTATTGACA
DNA 2: TGTCAATAGGTGTCAATAC
B1: the binding result with ArdK (SeMet, ArdKHT) was “binds”.

B2: IR operator, n = 3 spacer (IR_1/IR_2) (dsDNA)
DNA 1: GTAATGTCAATATTTGACA
DNA 2: TGTCAAATATTGACATTAC
Consider B2, for which the binding result in the data set with ArdK (ArdKHT) is “binds”.
